According to patent US20080020994:

System: purified wild-type Gα13 pre-loaded with GDP
Sequence (chain, as listed by the source): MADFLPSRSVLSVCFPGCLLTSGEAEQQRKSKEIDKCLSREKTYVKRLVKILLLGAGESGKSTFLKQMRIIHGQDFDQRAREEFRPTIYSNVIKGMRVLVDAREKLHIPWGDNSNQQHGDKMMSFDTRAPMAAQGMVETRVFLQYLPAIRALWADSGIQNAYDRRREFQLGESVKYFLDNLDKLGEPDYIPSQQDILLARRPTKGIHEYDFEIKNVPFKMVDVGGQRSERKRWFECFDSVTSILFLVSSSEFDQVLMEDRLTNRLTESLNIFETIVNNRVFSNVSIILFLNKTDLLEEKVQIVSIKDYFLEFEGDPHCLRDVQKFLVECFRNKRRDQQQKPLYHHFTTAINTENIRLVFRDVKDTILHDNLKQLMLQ

## purified Rac1(GTPγS)
  guanine nucleotide exchange or GTPase activity: No significant changes in these activities were examined
